Target: Cy3-labeled human histone nucleosome core particle reconstituted on the Widom 601 sequence (human) (UniProt P62807)
Assay: single-molecule fluorescence imaging on optical tweezers

lifetime: 24 s
Substance: HaloTag-635-LIG3α (wild type, nuclear DNA ligase IIIα) (enzyme)

Source: publication PMC12748704
